The supplement of paper PMC10567573

B1: MAGEA6 (parent)
chain: KISGGPRISYPLLHEWALREGEE

Variants of: B1
Test: protein stability index of a GFP-peptide fusion (GPS, HEK-293T) (PSI 1-6); higher = more stable
Details: c terminus: native
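Note: lentivirally expressed fusions sorted by FACS into six bins by GFP to DsRed ratio, PSI derived from sequencing read proportions per bin multiplied by bin number.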

Q: Which protein stability index does the source give for KISGGPRICYPLLHEWALREGEE [S9C] here?
A: 3.18

Q: For KISGGPRILYPLLHEWALREGEE [S9L], which protein stability index is on record?
A: 3.34

Q: Which protein stability index does the source give for KISGGPRISYPLLHEWALGEGEE [R19G] here?
A: 2.67

Q: With KISGGPRISYPLLHEWALFEGEE [R19F] as the variant, how does the protein stability index read?
A: 2.64

Q: For KISGGPRISYPLLHEWALEEGEE [R19E], which protein stability index is on record?
A: 2.29

Q: With KISGGPRISYPLLHEWALHEGEE [R19H] as the variant, how does the protein stability index read?
A: 3.42

Q: For KISGGPRISYPLLHEWALLEGEE [R19L], which protein stability index is on record?
A: 3.32

Q: For KISGGPRISYPLLHEWALKEGEE [R19K], which protein stability index is on record?
A: 2.08

Q: With KISGGPRYSYPLLHEWALREGEE [I8Y] as the variant, how does the protein stability index read?
A: 2.6

Q: Which protein stability index does the source give for KISGGPRQSYPLLHEWALREGEE [I8Q] here?
A: 2.06

Q: Which protein stability index does the source give for KISGGPRASYPLLHEWALREGEE [I8A] here?
A: 1.95

Q: With KISGGPRGSYPLLHEWALREGEE [I8G] as the variant, how does the protein stability index read?
A: 3.28

Q: For KISGGPRCSYPLLHEWALREGEE [I8C], which protein stability index is on record?
A: 2.79

Q: For KISGGPRMSYPLLHEWALREGEE [I8M], which protein stability index is on record?
A: 2

Q: For KISGGPRPSYPLLHEWALREGEE [I8P], which protein stability index is on record?
A: 2.24

Q: With KISGHPRISYPLLHEWALREGEE [G5H] as the variant, how does the protein stability index read?
A: 1.73

Q: With KISGYPRISYPLLHEWALREGEE [G5Y] as the variant, how does the protein stability index read?
A: 3.51

Q: With KISGTPRISYPLLHEWALREGEE [G5T] as the variant, how does the protein stability index read?
A: 3.04

Q: Which protein stability index does the source give for KISGKPRISYPLLHEWALREGEE [G5K] here?
A: 2.48

Q: Which protein stability index does the source give for KISGGPRISHPLLHEWALREGEE [Y10H] here?
A: 2.83

Q: For KISGGPRISKPLLHEWALREGEE [Y10K], which protein stability index is on record?
A: 3.2

Q: For KISGGPRISLPLLHEWALREGEE [Y10L], which protein stability index is on record?
A: 3.04

Q: For KISTGPRISYPLLHEWALREGEE [G4T], which protein stability index is on record?
A: 4.54

Q: Which protein stability index does the source give for KISIGPRISYPLLHEWALREGEE [G4I] here?
A: 3.06

Q: With KISSGPRISYPLLHEWALREGEE [G4S] as the variant, how does the protein stability index read?
A: 5.95

Q: Which protein stability index does the source give for KISVGPRISYPLLHEWALREGEE [G4V] here?
A: 1.61

Q: Which protein stability index does the source give for KISCGPRISYPLLHEWALREGEE [G4C] here?
A: 3.34

Q: For KISPGPRISYPLLHEWALREGEE [G4P], which protein stability index is on record?
A: 5.66

Q: For DISGGPRISYPLLHEWALREGEE [K1D], which protein stability index is on record?
A: 3.3

Q: Which protein stability index does the source give for QISGGPRISYPLLHEWALREGEE [K1Q] here?
A: 2.35

Q: Which protein stability index does the source give for NISGGPRISYPLLHEWALREGEE [K1N] here?
A: 2.62

Q: With KISGGPLISYPLLHEWALREGEE [R7L] as the variant, how does the protein stability index read?
A: 1.92

Q: For KISGGPPISYPLLHEWALREGEE [R7P], which protein stability index is on record?
A: 2.65

Q: Which protein stability index does the source give for KISGGPRISYPLLHIWALREGEE [E15I] here?
A: 2.14

Q: For KISGGPRISYPLLHGWALREGEE [E15G], which protein stability index is on record?
A: 3.53

Q: For KIMGGPRISYPLLHEWALREGEE [S3M], which protein stability index is on record?
A: 2.63

Q: For KITGGPRISYPLLHEWALREGEE [S3T], which protein stability index is on record?
A: 1.81

Q: For KISGGPRISYELLHEWALREGEE [P11E], which protein stability index is on record?
A: 3.27

Q: With KISGGPRISYMLLHEWALREGEE [P11M] as the variant, how does the protein stability index read?
A: 2.61

Q: With KISGGPRISYHLLHEWALREGEE [P11H] as the variant, how does the protein stability index read?
A: 2.24

Q: Which protein stability index does the source give for KISGGPRISYRLLHEWALREGEE [P11R] here?
A: 3.25

Q: For KISGGPRISYILLHEWALREGEE [P11I], which protein stability index is on record?
A: 2.41

Q: For KISGGPRISYLLLHEWALREGEE [P11L], which protein stability index is on record?
A: 2.3

Q: With KISGGPRISYSLLHEWALREGEE [P11S] as the variant, how does the protein stability index read?
A: 2.66

Q: Which protein stability index does the source give for KWSGGPRISYPLLHEWALREGEE [I2W] here?
A: 2.41

Q: With KCSGGPRISYPLLHEWALREGEE [I2C] as the variant, how does the protein stability index read?
A: 2.55

Q: With KDSGGPRISYPLLHEWALREGEE [I2D] as the variant, how does the protein stability index read?
A: 4

Q: With KISGGPRISYPLLSEWALREGEE [H14S] as the variant, how does the protein stability index read?
A: 3.4

Q: For KISGGPRISYPLLVEWALREGEE [H14V], which protein stability index is on record?
A: 3.6

Q: With KISGGPRISYPLLPEWALREGEE [H14P] as the variant, how does the protein stability index read?
A: 3.11

Q: With KISGGPRISYPLLHEWALREGCE [E22C] as the variant, how does the protein stability index read?
A: 1.88

Q: For KISGGPRISYPLLHEWALREGSE [E22S], which protein stability index is on record?
A: 2.12

Q: For KISGGPRISYPLLHEWALREGTE [E22T], which protein stability index is on record?
A: 2.36

Q: For KISGGPRISYPLLHEWALREGPE [E22P], which protein stability index is on record?
A: 1.85

Q: For KISGGPRISYPLLHEWALREGVE [E22V], which protein stability index is on record?
A: 1.06

Q: For KISGGPRISYPLLHEWALREGRE [E22R], which protein stability index is on record?
A: 3.04

Q: Which protein stability index does the source give for KISGGPRISYPLLHEWALREGME [E22M] here?
A: 2.19

Q: Which protein stability index does the source give for KISGGPRISYPLLHEWALREGGE [E22G] here?
A: 2.18

Q: Which protein stability index does the source give for KISGGPRISYPLLHEWALREGWE [E22W] here?
A: 1.87

Q: With KISGGPRISYPLLHEWALREGYE [E22Y] as the variant, how does the protein stability index read?
A: 2.29

Q: Which protein stability index does the source give for KISGGPRISYPLLHETALREGEE [W16T] here?
A: 1.89

Q: Which protein stability index does the source give for KISGGPRISYPLLHEHALREGEE [W16H] here?
A: 2.26

Q: Which protein stability index does the source give for KISGGPRISYPLLHEPALREGEE [W16P] here?
A: 2.49

Q: For KISGGPRISYPLLHEYALREGEE [W16Y], which protein stability index is on record?
A: 4.84

Q: Which protein stability index does the source give for KISGGPRISYPHLHEWALREGEE [L12H] here?
A: 2.3

Q: With KISGGPRISYPTLHEWALREGEE [L12T] as the variant, how does the protein stability index read?
A: 2.23

Q: For KISGGPRISYPLLHEWALRLGEE [E20L], which protein stability index is on record?
A: 3.74

Q: For KISGGPRISYPLLHEWALRVGEE [E20V], which protein stability index is on record?
A: 3.06

Q: For KISGGPRISYPLLHEWALRNGEE [E20N], which protein stability index is on record?
A: 2.34

Q: For KISGGPRISYPLLHEWELREGEE [A17E], which protein stability index is on record?
A: 3.55

Q: Which protein stability index does the source give for KISGGPRISYPLLHEWNLREGEE [A17N] here?
A: 3.69

Q: Which protein stability index does the source give for KISGGPRISYPLLHEWCLREGEE [A17C] here?
A: 3.28

Q: With KISGGGRISYPLLHEWALREGEE [P6G] as the variant, how does the protein stability index read?
A: 1.91

Q: With KISGGSRISYPLLHEWALREGEE [P6S] as the variant, how does the protein stability index read?
A: 2.73

Q: With KISGGIRISYPLLHEWALREGEE [P6I] as the variant, how does the protein stability index read?
A: 3.5

Q: For KISGGARISYPLLHEWALREGEE [P6A], which protein stability index is on record?
A: 2.25

Q: For KISGGPRISYPLLHEWALREGEH [E23H], which protein stability index is on record?
A: 2.73

Q: For KISGGPRISYPLLHEWALREGEP [E23P], which protein stability index is on record?
A: 1.89

Q: Which protein stability index does the source give for KISGGPRISYPLLHEWALREGEN [E23N] here?
A: 2.73

Q: For KISGGPRISYPLLHEWALREGEA [E23A], which protein stability index is on record?
A: 1.23

Q: Which protein stability index does the source give for KISGGPRISYPLLHEWALREGEY [E23Y] here?
A: 2.56

Q: For KISGGPRISYPLLHEWALREGEG [E23G], which protein stability index is on record?
A: 2.41

Q: For KISGGPRISYPLLHEWALREGEW [E23W], which protein stability index is on record?
A: 1.94

Q: Which protein stability index does the source give for KISGGPRISYPLLHEWALREGEF [E23F] here?
A: 2.43

Q: For KISGGPRISYPLLHEWATREGEE [L18T], which protein stability index is on record?
A: 2.04

Q: With KISGGPRISYPLLHEWAIREGEE [L18I] as the variant, how does the protein stability index read?
A: 2.98

Q: For KISGGPRISYPLLHEWASREGEE [L18S], which protein stability index is on record?
A: 2.31

Q: Which protein stability index does the source give for KISGGPRISYPLLHEWAQREGEE [L18Q] here?
A: 1.63

Q: With KISGGPRISYPLLHEWAEREGEE [L18E] as the variant, how does the protein stability index read?
A: 3.11

Q: For KISGGPRISYPLLHEWANREGEE [L18N], which protein stability index is on record?
A: 2.16

Q: For KISGGPRISYPLMHEWALREGEE [L13M], which protein stability index is on record?
A: 1.77

Q: Which protein stability index does the source give for KISGGPRISYPLWHEWALREGEE [L13W] here?
A: 3.38

Q: For KISGGPRISYPLNHEWALREGEE [L13N], which protein stability index is on record?
A: 2.95

Q: For KISGGPRISYPLLHEWALREKEE [G21K], which protein stability index is on record?
A: 3.31

Q: With KISGGPRISYPLLHEWALREYEE [G21Y] as the variant, how does the protein stability index read?
A: 2.4

Q: For KISGGPRISYPLLHEWALRECEE [G21C], which protein stability index is on record?
A: 3.26

Q: For KISGGPRISYPLLHEWALREDEE [G21D], which protein stability index is on record?
A: 4.14
